Patent publication US20230079439A1 (University of California, published 2023)
Numbered stars: 1 amine (or outer) side, 2 acyl side, 3 side chain; on linkers, the order of the positions; unused ones are H or OH. Suc = O=C(CCC(=O)[*:2])[*:1]

Target: neurexins (NXs) located on the plasma membrane of INS-1E cells (rat)
Test: cell-based or functional assay

EC50 of the increase of GSIS in INS-1E cells: 32 µM
B1: HSA-112 (HSA-28 dimer formed by bridging two HSA-28 monomers via amide bonds with active ester PEG2000) (peptide)
peptide: {PEG2000-Suc}-QQGEFLNYD-NH2
modifications: also: dimer of two HSA-28 monomers bridged via PEG2000
